The chains are these.
B1: PyVP1-3C-WW[N-14] (other)
chain: MSGWTEHKSPDGRTYYYNTETKQSTWEKPDDGHMSTKACPRPAPVPKLLIKGGMEVLDLVTGPDSVTEIEAFLNPRMGQPPTPESLTEGGQYYGWSRGINLATSDTEDSPGNNTLPTWSMAKLQLPMLNEDLTCDTLQMWEAVSVKTEVVGSGSLLDVHGFNKPTDTVNTKGISTPVEGSQYHVFAVGGEPLDLQGLVTDARTKYKEEGVVTIKTITKKDMVNKDQVLNPISKAKLDKDGMYPVEIWHPDPAKNENTRYFGNYTGGTCTPPVLQFTNTLTTVLLDENGVGPLSKGEGLYLSSVDIMGWRVTRNYDVHHWRGLPRYFKITLRKRWVKNPYPMASLISSLFNNMLPQVQGQPMEGENTQVEEVRVYDGTEPVPGDPDMTRYVDRFGKTKTVFPPG
notes: The range 15-384 follows from 'N-terminus shortened by 14 amino acids'
B2: [PyVP1-3C-WW1]-intein-CBD (other)
chain: MSGWTEHKSPDGRTYYYNTETKQSTWEKPDDGHMAPKRKSGVSKSETKSTKACPRPAPVPKLLIKGGMEVLDLVTGPDSVTEIEAFLNPRMGQPPTPESLTEGGQYYGWSRGINLATSDTEDSPGNNTLPTWSMAKLQLPMLNEDLTCDTLQMWEAVSVKTEVVGSGSLLDVHGFNKPTDTVNTKGISTPVEGSQYHVFAVGGEPLDLQGLVTDARTKYKEEGVVTIKTITKKDMVNKDQVLNPISKAKLDKDGMYPVEIWHPDPAKNENTRYFGNYTGGTCTPPVLQFTNTLTTVLLDENGVGPLSKGEGLYLSSVDIMGWRVTRNYDVHHWRGLPRYFKITLRKRWVKNPYPMASLISSLFNNMLPQVQGQPMEGENTQVEEVRVYDGTEPVPGDPDMTRYVDRFGKTKTVFPPG
notes: also called (PyVP1-3C-WW1)-intein-CBD fusion protein
B3: fluorescence-marked proline-rich peptide Cys-Ser-Gly-Pro-Pro-Pro-Pro-Pro-Pro-Pro-Pro-Leu-Pro (fluorescein-maleimide label) (peptide)
peptide: C(fluorescein‑maleimide)SGPPPPPPPPLP
notes: also called fluorescence-labeled peptide; fluorescence-marked peptide
B4: synthetic proline-rich peptide Cys-Ser-Gly-Pro-Pro-Pro-Pro-Pro-Pro-Pro-Pro-Leu-Pro (peptide)
peptide: CSGPPPPPPPPLP
notes: also called CSGP8LP; proline peptide

The target of experiment [1] is B3. The experiment in a line: incubation of labelled peptide with PyVP1-3C-WW[N-14], capsid assembly, gel filtration. (Size exclusion chromatography separates by hydrodynamic size, large species first.)
For experiment [2], the target named is B4. The experiment in a line: affinity column with peptide, crude extract, wash with 2 M NaCl, elution with 2% SDS, SDS gel.
The target of experiment [3] is T1, PyVP1-WW150 (mouse polyoma virus; Mus musculus …).
T1 construct: WW domain inserted between VP1 positions 148 and 149; Soluble pentamer after intein cleavage; also called PyVP1-WW150 variant; PyVP1-WW150 protein
The experiment in a line: gel filtration (TSK gel G5000PWXL), co-elution of labelled peptide with capsids and pentamers, absorption at 490 nm.

Experiment [4] has as its target T1, PyVP1-WW150. The experiment in a line: SPR (Biacore X), peptide on CM5 chip, Dulbecco's PBS.
For experiment [5], the target named is T2, PyVP1-WW150-D8C (mouse polyoma virus; Mus musculus …).
T2 construct: Position 8 is counted on the WW domain itself
The experiment in a line: surface plasmon resonance; strengthened by 500 mM ammonium sulfate. In general terms: Surface plasmon resonance follows binding to a sensor surface in real time, without labels.

Experiment [6] deals with T1, PyVP1-WW150. The experiment in a line: SPR (Biacore X), peptide on CM5 chip; summary of the three analyses of example 2.
For experiment [7], the target named is T1, PyVP1-WW150. The experiment in a line: SPR (Biacore X), peptide on CM5 chip, 10 mM HEPES, 1 mM EDTA, 150 mM NaCl, pH 7.2, 25 C, protein 5 to 50 nM.

Ends that are not written are not given here.

What is called koff is the first-order rate constant of dissociation. A low value points to a long-lived complex. The kon is a measure of how fast the partners come together. The low end stands for slower complex formation, the high end for faster complex formation. What is called Kd is the concentration at which binding is half-saturated. Lower therefore signals a tighter complex.

Turning to B1, the binding result in experiment [1] is reported as “binds”.

In the case of B2, the binding result in experiment [2] is reported as “binds”.

As to B3, the binding result in experiment [3] is listed as “binds”.

For B4, in experiment [4], the koff worked out at 0.0018 s⁻¹ and the kon came to 200000 M⁻¹ s⁻¹. The binding result in experiment [5] is “binds”. Also, the Kd in experiment [6] amounted to 20 nM. Besides, the Kd in experiment [7] was determined as 5 nM.

Source of the values: patent publication US20060252130A1 (ACGT PREGENOMICS, published 2006).
